Measurements published in patent US20150309012A1 (BAXTER INTERNATIONAL, published 2015).

What was measured:
Experiment in all cases: cell-based or functional assay
[1] = biological target: T1, oxMIF on the cell surface of U937 human monocytic cells (human, UniProt P14174 2-115, oxidised isoform (oxMIF); residues not stated)
[2] = biological target: T1, oxMIF on the cell surface of U937 human …; remark: listed apart in the source
[3] = biological target: T1, oxMIF on the cell surface of U937 human …; remark: listed apart in the source

T1 sequence (P14174 2-115): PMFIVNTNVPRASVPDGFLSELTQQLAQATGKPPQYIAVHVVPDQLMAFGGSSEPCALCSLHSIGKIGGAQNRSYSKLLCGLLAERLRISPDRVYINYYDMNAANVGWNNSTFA

IC50 of inhibition of random migration (chemokinesis) of U937 cells, Transwell, antibody in lower chamber; 25 experiments (38 plates) [1]: 0.8 nM
IC50 of inhibition of random migration (chemokinesis) of U937 cells, Transwell, antibody in lower chamber; duplicate plates (26 plates from 13 experiments) [1]: 0.8 nM
IC 50 of migration inhibition of U937 cells, antibody in the inserts (upper chamber), plate 2 [2]: 1.1 nM
IC50 (inhibition of cell migration, chemokinesis assay, MI against log RAM9) [3]: 0.8 nM
B1: anti-oxMIF antibody RAM9 (antibody, human IgG1, kappa, V domains shown)
VH: EVQLLESGGGLVQPGGSLRLSCAASGFTFSIYSMNWVRQAPGKGLEWVSSIGSSGGTTYYADSVKGRFTISRDNSKNTLYLQMNSLRAEDTAVYYCAGSQWLYGMDVWGQGTTVTVSS
VL: DIQMTQSPSSLSASVGDRVTITCRSSQRIMTYLNWYQQKPGKAPKLLIFVASHSQSGVPSRFRGSGSETDFTLTISGLQPEDSATYYCQQSFWTPLTFGGGTKVEIKR
